For this assay, the target named is human CD3 (human) (UniProt P09693). The assay is described as follows: cell-based or functional assay.
Sequence of human CD3 (human) (chain, as listed by the source, chain 1 of 3): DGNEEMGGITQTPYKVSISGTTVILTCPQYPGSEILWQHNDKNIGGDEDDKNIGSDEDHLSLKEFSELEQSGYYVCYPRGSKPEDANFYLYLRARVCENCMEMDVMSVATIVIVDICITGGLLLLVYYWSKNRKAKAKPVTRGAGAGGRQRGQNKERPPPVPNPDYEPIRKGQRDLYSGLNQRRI
Sequence of human CD3 (human) (P09693 23-182, chain 2 of 3): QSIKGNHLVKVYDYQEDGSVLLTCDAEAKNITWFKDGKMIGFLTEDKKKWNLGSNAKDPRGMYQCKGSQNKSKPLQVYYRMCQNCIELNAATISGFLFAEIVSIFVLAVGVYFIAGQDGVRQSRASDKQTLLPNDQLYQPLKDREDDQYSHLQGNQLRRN
Sequence of human CD3 (human) (P04234 22-171, chain 3 of 3): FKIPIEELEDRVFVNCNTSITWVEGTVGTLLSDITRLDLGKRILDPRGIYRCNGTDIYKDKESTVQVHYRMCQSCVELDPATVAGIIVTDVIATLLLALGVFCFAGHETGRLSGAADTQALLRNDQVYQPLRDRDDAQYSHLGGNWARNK

Take OKT3 antibody: the T-cell activation (CD69/CD25, flow cytometry, 48 h) was greater than 50%.

(Values after patent US20250009780A1, “AGENTS ENCODING CLDN6 AND CD3 BINDING ELEMENTS FOR TREATING CLDN6-POSITIVE CANCERS” (BIONTECH SE, priority 2021, published 2025).)
